Test results as given in the nanobody polyreactivity screen of Harvey et al. (2022).

Test: yeast display, Sf9 membrane polyspecificity reagent, FACS + sequencing; frameworks hold sequencing errors
Outline: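 Polyreactivity labels are assigned by the sorting gate from which each nanobody was recovered. The gates were low and high (top ~1%), set on anti-HA fluorescence for expression and streptavidin fluorescence for reagent binding. Before sorting, galactose-induced (36–48 hours) yeast display cells were stained for 1 hour at 4 °C with 10% biotinylated, detergent-solubilized Sf9 membrane reagent.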

Sequence	polyreactivity (PSR sort gate)
QVQLVESGGGLVQAGGSLRLSFAASGRTFGKNAMGWYRQAPGKEREFVAAITSRGGSTYYADSVKGRFTISRDNAKNTVYLQMNSLKPEDTAVYYCNREYKRPSQRTEHYYWGQGTQVTVSS	low polyreactivity
QVQLVESGGGLVQAGGSLRLSFAASGRTFIGYAMGWSRQAPGKERELVAGISWSGGSTYYADSVKGRFTISRDNAKNTVYLQMNSLKPEDTAVYFCAARGRWSTEYRYWGQGTQVTVSS	low polyreactivity
QVQLVESGGGLVQAGGSLRLSFAASGSIFGPYVMGWYRQAPGKERELVAAISKSGGSTYYADSVKGRFTISRDNAKNTVYLQMNSLKPEDTAVYYCATDYLGGGKRYYYWGQGTQVTVSS	high polyreactivity
QVQLVESGGGLVQAGGSLRLSFAASGSIFSTYAMVWYRQAPGKERELVAAISTRGGRTYYADSLKGRFTLSRDNAKNTVYLQMNSLKPEDTAVYYCAADRYKTIGQWYYYWGQGTQVTVSS	high polyreactivity
QVQLVESGGGLVQAGGSLRLSFAASGSIFSYYPMGWYSQAPGKERELVAAISTSGGRTYYADSVKGRFTISRDNEKNTVYLQLYSLKPEDTPVYYCAAPVRWKNYDYWGQGTQVTVSS	high polyreactivity
QVQLVESGGGLVQAGGSLRLSFAASGSISLYYAMGWYRKAPGKETELVAAISTRGGSTYYADSVKGRFTISRDNAKNTVYLQMNSLKPEDTAVYYCAARTRLTADPRYGISSKMYYWGQGTQVTVSS	high polyreactivity
QVQLVESGGGLVQAGGSLRLSFAASGSTFNIYTMGWYRQAPGKEWELVARITFSGGSTYYADSVKGRFTISRDYAKNTVYLQMNSLKPEDTAVYYCAVRVYRVDHFCYDYWGQGTQVTVSS	high polyreactivity
QVQLVESGGGLVQAGGSLRLSFAASGSTFPSYAMGWYRQAPGKERELVAAITKGGSTTYADSVKGRFTISRDNAKNTVYLQMNSLKPEDTAVYYCAARYYYYYYYIRRDYWGQGTQVTVSS	low polyreactivity
QVQLVESGGGLVQAGGSLRLSGAASGGTFSTNAMGWYRQAPGKERELVAAISLSGGRTYADSEKGRFTISRDNAKNTVYLKMNSVKPEDTAVYYCNADSAGITRARSELDYWGQGTQVTVSS	low polyreactivity
QVQLVESGGGLVQAGGSLRLSGAASGRIFVRNAMGWYRQAPGKERELVADITNGGSTNYADSVKGRFTISRDNAKNTVYLQMNSLKPEDTAVYYCAADTLGVYDGDYWGQGTQVTVSS	low polyreactivity
QVQLVESGGGLVQAGGSLRLSGAASGRIFYYNALGWYRPAPGKEREFVAAITWSGTSTNYADSLKGRFTISRDNAKNTVYLQMNSLKPEDTAVYYCAAQLRNSSRTYYRSGYWGQGTQVTVSS	high polyreactivity
QVQLVESGGGLVQAGGSLRLSGAASGSIFDIYAMGWYRPAPGKERELVADITISGGSTYYADSVKVRFTISRDNAKNTVYLQMNSLIPEDTAVYYCAADVTVVLGYKYDYWGQGTQVTVSS	low polyreactivity
QVQLVESGGGLVQAGGSLRLSGAASGSTFDIYAMGWYRQPPGKESELVAAITVSGGSTYYADSVKGSFTISRDNAKNTVYLQMNSLKPEDTAVYYCNADWSGWQGWYNYWGQGTQVTVSS	low polyreactivity
QVQLVESGGGLVQAGGSLRLSGAASGSTFESYAMGWYRQAPGKERELVAAISWRVGSTYYADSVKGRFTISRDNAKNTVYLQMNSLKPEDTAVYDCASKGRYAHYGGYDYWGQGTQVTVSS	low polyreactivity
QVQLVESGGGLVQAGGSLRLSGAASGSTFYSYAMGWYRQAPGKERELVAAISGSGASTYYADSVKGSFTISRDNAKNTVYLLMNSLKPEETAVYYCAADKPGIFSRFDYWGQGTQVTVSS	low polyreactivity
QVQLVESGGGLVQAGGSLRLSGAASGTLYINLMGWYRQATGKERDLVAAISSNGARTYYADSVKGRFTISRDNAKNTVYLQMNSLKPDDTAVYYSNRVASVRARDYDYWGQGTQVTVSS	high polyreactivity

Sequence	polyreactivity (PSR sort gate)
QVQLVESGGGLVQAGGSLRLSGADSGLTFRRNAMGWYRQAPGNERELVAAIRTGGSTYYADSVKGRFTISRDNAKNTVYLQMNSLKPEDTAVYYCAARSLIGSRLVPMNFWGQGTQVTVSS	high polyreactivity
QVQLVESGGGLVQAGGSLRLSGSASGIIFIYYTIGWYRQAPGTESELVAVITTSGDGTYYADSVKGRFTISRDNAKNTVYLQMNSLKPEDTAVYYCAASYSTWVSTRNDYWGQGTQVTVSS	low polyreactivity
QVQLVESGGGLVQAGGSLRLSRAASGFIFRVYAMGWYRQAPGKERELVAAITGNGVSTYYADSVKGRFTISRDNAKNTVYLQMNSLKPEDTAVYYCATYGRRWYSSRRLDYWGQGTQVTVSS	low polyreactivity
QVQLVESGGGLVQAGGSLRLSRAASGITFRFYAMGWYRQAPGKERQVVARISSSGSRTYYADSVKVRFTISRDNAKNTVYLQMNSLKPEDTAVYYCNAVRRRYQSLLQGDYWGQGTQVTVSS	high polyreactivity
QVQLVESGGGLVQAGGSLRLSRAASGSIFDDYAMGWYRQAPGKERELVAAITSGGSTYYADSVKGRFTMSRDNAKNTVYLQRNSLKPEDTAVYYRATRYHWSSSFAPVGAYGYWGQGTQVTVSP	low polyreactivity
QVQLVESGGGLVQAGGSLRLSRAASGSIFVSNAMGWYRQAPGKERELVAAIRGVDSTYYADSVKGRFTISRDNAKTTVYLQMNSLKPEDTAVYYCATRGPGYPRYYDWGQGTQVTVSS	high polyreactivity
QVQLVESGGGLVQAGGSLRLSRAASGSTFVENAMGWYRQAPGKERELVAAISSSGDSTFYADSVKGRFTISRDNAKNTVYLQMNSLKPEDTAVYYCAADRRINYDGLDMDYWGQGTQVTVSS	low polyreactivity
QVQLVESGGGLVQAGGSLRLSRDASGIIIYDYDIGWYRKAPGKERELVAAITSSGGSTYYADSVKGRFTLSRDNAKNTVYLQMNSLIPEDTAVYYCAAATRGSGRRYDYWGQGTQVTVSS	high polyreactivity
QVQLVESGGGLVQAGGSLRLSSAASGFIFFRYARGWYRQEPGKEREFVAAISWSGGRTYYADSVKGRFTISRDNAKNTVYLQMNSLKPEDTAVYYCAAYPSYWGYGYPGHDYWGQGTQVTVSS	high polyreactivity
QVQLVESGGGLVQAGGSLRLSSAASGFIFGGYSMGWYRQAPGKERELVAAISRSGGSTYYADSVKGRFTISRDNPKNTVYLQMNSLKPEDTAVYYCNAVPRRQGFNYWGHGTQVTVSS	high polyreactivity
QVQLVESGGGLVQAGGSLRLSSAASGFIFQKYVMGWSRQAPGKETEMVAVISRSGDSTRYADSVQGRFTISRDNAKNTVYLQMNSLKPEDTAVYYCAAASAKLTGTGYYYWGQGTQVTVSS	high polyreactivity
QVQLVESGGGLVQAGGSLRLSSAASGFIFYDYAMGWYRQAPGKERALVAAIRSSDGGTYYADSVKGRFTISRDNAKNTVYLQMNSLKPEDTAVYYCAARPSYYDYDYWGQGTQVTVSS	low polyreactivity
QVQLVESGGGLVQAGGSLRLSSAASGFTFEFYAMGWYRQAPGKERELVAAITGSGGSTYYADSVKGRFTISRDNAKNTVYLQMNCLKPEDTAVYYWNAVTRRSAQVGHDYWGQVTQVTVSS	high polyreactivity
QVQLVESGGGLVQAGGSLRLSSAASGFTFIRSTMGWYRQAPGKEREFVAAITWSGDSTYYADSVKGRFTISRDNAKNTVYLQMNSLKPEDTAVYYCAAESDPYSPEYDYWGQGTQVTVSS	low polyreactivity
QVQLVESGGGLVQAGGSLRLSSAASGFTFKAYALGWYRQAPGTERELVAAITKSGGRTFYADSVKGRFTISRDNAKNTVYLQINCLNPEDTAVYYCSGRRWGYWTGYRGLDYDYWGQGTQVTVSS	high polyreactivity
